In the Immune Epitope Database (IEDB):

Legend:
[1] = target: HLA-A*31:01; test: IEDB peptide-MHC binding, purified MHC/competitive/fluorescence; filed as Kd, often an IC50 or EC50 that approximates it; ≥ and ≤ were set here for values at or beyond the usual limits of such assays; details: source organism: Human immunodeficiency virus 1
[2] = target: HLA-A*11:01; test: as above; details: source organism: Human immunodeficiency virus 1
[3] = target: HLA-A*03:01; test: as above; details: source organism: Human immunodeficiency virus 1
[4] = target: HLA-A*30:01; test: as above; details: source organism: Human immunodeficiency virus 1
[5] = target: HLA-B*08:02; test: as above; details: source organism: Human immunodeficiency virus 1
[6] = target: HLA-A*26:01; test: as above; details: source organism: Human immunodeficiency virus 1
[7] = target: HLA-A*26:03; test: as above; details: source organism: Human immunodeficiency virus 1
[8] = target: HLA-C*01:02; test: IEDB peptide-MHC binding, purified MHC/direct/fluorescence; filed as Kd, often an IC50 or EC50 that approximates it; ≥ and ≤ were set here for values at or beyond the usual limits of such assays; details: source organism: Homo sapiens
[9] = target: HLA-B*40:01; test: as above; details: source organism: Mycobacterium tuberculosis
[10] = target: HLA-A*31:01; test: as above; details: source organism: Mycobacterium tuberculosis
[11] = target: HLA-A*11:01; test: as above; details: source organism: Mycobacterium tuberculosis
[12] = target: HLA-B*27:05; test: as above; details: source organism: Mycobacterium tuberculosis
[13] = target: HLA-B*57:01; test: as above; details: source organism: Mycobacterium tuberculosis
[14] = target: HLA-B*58:01; test: as above; details: source organism: Mycobacterium tuberculosis
[15] = target: HLA-B*46:01; test: as above; details: source organism: Mycobacterium tuberculosis
[16] = target: HLA-B*08:02; test: as above; details: source organism: Mycobacterium tuberculosis str. Haarlem
[17] = target: HLA-B*08:01; test: as above; details: source organism: Mycobacterium tuberculosis str. Haarlem
[18] = target: HLA-B*48:01; test: as above; details: source organism: Mycobacterium tuberculosis
[19] = target: HLA-B*07:02; test: as above; details: source organism: Mycobacterium tuberculosis
[20] = target: HLA-A*68:02; test: as above; details: source organism: Mycobacterium tuberculosis
[21] = target: HLA-B*08:03; test: as above; details: source organism: Mycobacterium tuberculosis str. Haarlem

Question: IATLYCVHQR was tested. Which Kd [1] did it give?
Answer: 0.761 µM

Question: And the Kd [2]?
Answer: 5.82 µM

Question: What about the Kd [3] of the same sequence?
Answer: ≥ 20 µM

Question: What about the Kd [4] of the same sequence?
Answer: 5.99 µM

Question: And the Kd [5]?
Answer: ≥ 20 µM

Question: What about the Kd [6] of the same sequence?
Answer: ≥ 20 µM

Question: And the Kd [7]?
Answer: ≥ 20 µM

Question: PLPDRSLPAL was tested. Which Kd [8] did it give?
Answer: ≤ 0.0001 µM

Question: With TLLESFLFY as the sequence, how does the Kd [9] read?
Answer: ≥ 20 µM

Question: What about the Kd [10] of the same sequence?
Answer: ≥ 20 µM

Question: And the Kd [11]?
Answer: 0.01 µM

Question: And the Kd [12]?
Answer: ≥ 20 µM

Question: And the Kd [13]?
Answer: ≥ 20 µM

Question: What about the Kd [14] of the same sequence?
Answer: ≥ 20 µM

Question: And the Kd [15]?
Answer: ≥ 20 µM

Question: And the Kd [16]?
Answer: ≥ 20 µM

Question: And the Kd [17]?
Answer: ≥ 20 µM

Question: What about the Kd [18] of the same sequence?
Answer: ≥ 20 µM

Question: And the Kd [19]?
Answer: ≥ 20 µM

Question: What about the Kd [20] of the same sequence?
Answer: ≥ 20 µM

Question: What about the Kd [21] of the same sequence?
Answer: ≥ 20 µM
